Source: PMC2855492

Columns and labels:
[1] = biological target: monkey FcRn (monkey (cynomolgus monkeys in the same paragraph)) (UniProt Q8SPV9)
[2] = biological target: human neonatal Fc receptor (FcRn) (human) (UniProt P55899)
[3] = biological target: human neonatal Fc receptor (FcRn) (human) (UniProt P55899); experiment: SPR
[4] = biological target: monkey FcRn (monkey (cynomolgus monkeys in the same paragraph)) (UniProt Q8SPV9); remark: listed apart in the source

| serum half-life in cynomolgus monkeys, 4 mg/kg i.v. [1] | serum half-life in hFcRn mice (mFcRn-/-, hFcRn+), 2 mg/kg i.v. [2] | fold improvement in FcRn affinity [3] | serum half-life in cynomolgus monkeys, 7.5 mg/kg i.v. [4] | Substance |
| --- | --- | --- | --- | --- |
| 31.1 days | 12 days | 11 fold |  | Xtend-VEGF (bevacizumab IgG1 with the Fc substitutions M428L/N434S) (antibody) |
|  | 13.9 days |  | 4.7 days | Xtend-EGFR (humanized cetuximab huC225 IgG1 with the Fc substitutions M428L/N434S) (antibody) |
